These results are taken from publication PMC12547741, “DUF-721 and N-terminal extension of the helicase loader DciA bind ssDNA to promote replicative DnaB helicase loading in Caulobacter crescentus”.

The target in data set [1] is ccDnaB-His (wild type). The experiment in a line: pull-down (Ni-conjugated magnetic beads), quantified from SDS-14% PAGE with Coomassie staining. Conditions: sfTq2-DciA 850 nM, three independent reactions per legend, parent: est. 1.4, read off a plot.
Data set [2] addresses ccDnaB-His (wild type) (Caulobacter crescentus). The experiment in a line: SEC; ccDnaB-His alone on Superdex 200; 25 mM Tris-HCl pH 7.5, 300 mM NaCl, 20% glycerol, 0.1 mM ATP, 5 mM MgCl2; fractions by SDS-PAGE; hexamer. For orientation: In gel filtration, larger molecules generally elute earlier.
Data set [3] deals with His-DciA del1-45 (UniProt A0A0H3C5R2 46-179, del1-45). Kind of data set: EMSA; 150 mM K-glutamate; EMSA: 20 mM Tris-HCl pH 7.5, 10 mM Mg acetate, 50 or 150 mM K-glutamate, 0.1 mg/ml BSA, 10% glycerol, 2 mM ATP, 12.5 nM DNA, 5 min on ice; M13 pull-down: Tris pH 7.5, 10 mM Mg acetate, 50 mM K-glutamate, 0.1 mM ATP, 0.1 mg/ml BSA, 30 C. The note with it: protein: recombinant; tags: N-terminal His6; label: 5'-FAM.
Chain of His-DciA del1-45 (A0A0H3C5R2 entry or part of it del1-45): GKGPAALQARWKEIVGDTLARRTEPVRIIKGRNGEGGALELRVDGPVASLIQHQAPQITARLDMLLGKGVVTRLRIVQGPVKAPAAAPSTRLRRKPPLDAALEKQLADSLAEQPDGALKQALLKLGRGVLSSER

The target of data set [4] is T1, His-DciA WT (UniProt A0A0H3C5R2 1-179). The data set is described as above. The note with it: protein: recombinant; tags: N-terminal His6; label: 5'-FAM.
T1 sequence (A0A0H3C5R2 entry or part of it): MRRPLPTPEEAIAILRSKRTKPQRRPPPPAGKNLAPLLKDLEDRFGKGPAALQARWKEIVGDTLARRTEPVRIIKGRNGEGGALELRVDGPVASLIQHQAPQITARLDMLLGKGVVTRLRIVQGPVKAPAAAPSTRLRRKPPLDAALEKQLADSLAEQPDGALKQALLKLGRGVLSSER
The target in data set [5] is His-DciA R106A L119S (RL) (UniProt A0A0H3C5R2 1-179, R106A;L119S). The data set is described as above. The note with it: protein: recombinant; tags: N-terminal His6; label: 5'-FAM.
Chain of His-DciA R106A L119S (RL) (A0A0H3C5R2 entry or part of it R106A;L119S | R106A L119S R106A L119S): as the sequence (A0A0H3C5R2 entry or part of it) above, with R106A, L119S counted along it
For data set [6], the target named is T2, His-DciA R106A (UniProt A0A0H3C5R2 1-179, R106A). The data set is described as above. The note with it: protein: recombinant; tags: N-terminal His6; label: 5'-FAM.
T2 sequence (A0A0H3C5R2 entry or part of it R106A | R106A R106A): as the sequence (A0A0H3C5R2 entry or part of it) above, with R106A counted along it
Data set [7] concerns the target T1, His-DciA WT. The experiment in a line: EMSA; 50 mM K-glutamate; EMSA: 20 mM Tris-HCl pH 7.5, 10 mM Mg acetate, 50 or 150 mM K-glutamate, 0.1 mg/ml BSA, 10% glycerol, 2 mM ATP, 12.5 nM DNA, 5 min on ice; M13 pull-down: Tris pH 7.5, 10 mM Mg acetate, 50 mM K-glutamate, 0.1 mM ATP, 0.1 mg/ml BSA, 30 C. Conditions: protein: recombinant; tags: N-terminal His6; label: 5'-FAM. On the technique in general: A gel shift assay detects complexes by their altered migration in electrophoresis.

In data set [8] the target is T2, His-DciA R106A. The description is as above. The note with it: protein: recombinant; tags: N-terminal His6; label: 5'-FAM.
Data set [9] has as its target His-DciA L119S (UniProt A0A0H3C5R2 1-179, L119S). The experiment in a line: EMSA; 150 mM K-glutamate; EMSA: 20 mM Tris-HCl pH 7.5, 10 mM Mg acetate, 50 or 150 mM K-glutamate, 0.1 mg/ml BSA, 10% glycerol, 2 mM ATP, 12.5 nM DNA, 5 min on ice; M13 pull-down: Tris pH 7.5, 10 mM Mg acetate, 50 mM K-glutamate, 0.1 mM ATP, 0.1 mg/ml BSA, 30 C. The note with it: protein: recombinant; tags: N-terminal His6; label: 5'-FAM.

In data set [10] the target is His-DciA 4A (UniProt A0A0H3C5R2 1-179, H98A;Q99A;Q102A;R106A). The description is as above. The note with it: protein: recombinant; tags: N-terminal His6; label: 5'-FAM.
Chain of His-DciA 4A (A0A0H3C5R2 entry or part of it H98A;Q99A;Q102A;R106A): as the sequence (A0A0H3C5R2 entry or part of it) above, with H98A, Q99A, Q102A, R106A counted along it
Data set [11] deals with His-DciA 4A2S (UniProt A0A0H3C5R2 1-179, H98A;Q99A;Q102A;R106A;M109S;L110S). The description is as above. The note with it: protein: recombinant; tags: N-terminal His6; label: 5'-FAM.
Chain of His-DciA 4A2S (A0A0H3C5R2 entry or part of it H98A;Q99A;Q102A;R106A;M109S;L110S): as the sequence (A0A0H3C5R2 entry or part of it) above, with H98A, Q99A, Q102A, R106A, M109S, L110S counted along it

Chain of His-DciA L119S (A0A0H3C5R2 entry or part of it L119S | L119S L119S): as the sequence (A0A0H3C5R2 entry or part of it) above, with L119S counted along it

Take “superfolder mTurquoise2 fluorescent protein-tagged DciA (sfTq2-DciA), wild type R106A”: in data set [1], the response came out at 1.2 AU.
What is called stoichiometry N is a count of units in the complex or per binding partner. As to ccDnaB-His (wild type) (enzyme), the stoichiometry N in data set [2] stood at 6.
The term Kd denotes the concentration at which binding is half-saturated. Regarding TTTTTTTTTTTTTTTTTTTTTTTTTTTTTTTTTTT (ssDNA) [35-mer oligo 2201], the Kd in data set [3] was found to be 520 ± 30.6 nM; in data set [4], 109 ± 21 nM; in data set [5], 665 ± 47.9 nM; in data set [6] it was 543 ± 9.95 nM; in data set [7], 19.6 ± 7.03 nM; in [8], 35.7 ± 17.6 nM.

B1: 80-mer oligo 1790 (ssDNA)
DNA: TCCTTGTTATCCACAGGGCAGTTTTTTTTTTTTTTTTTTTTTTTTTTTTTTTTTTTTTTTTGTGCGATATAGTTCTCCGA
With B1, the Kd turned out to be 115 ± 40.3 nM in data set [9]; 115 ± 40.3 nM in data set [3]; 25.4 ± 8.4 nM in data set [4]; 115 ± 40.3 nM in data set [10]; 115 ± 40.3 nM in data set [5]; 115 ± 40.3 nM in data set [11]. The values for the Kd in data set [6], in data set [7] and in data set [8] were 115 ± 40.3 nM, 49.7 ± 24.4 nM and 152 ± 75.4 nM, respectively.
